We go through five molecules from patent publication US20240026407A1, “MODIFICATION OF SAPONINS” (GLAXOSMITHKLINE BIOLOGICALS SA, priority 2020, published 2024).

B1: 1045 (protein, listed as Acidobacterium capsulatum)
chain: MLVGGLATAATAQTNLQQLEKTFQNPPDNAKPMLRWWWFGPSVTKPEILREMQQIKAGGFGGFVIHYVYPLALDDPQTGFRNLPFLSPAMLSDVSYANRQAHALGLRAGTALASGWPYGGPMTAVTEAAAKIVQKESTVAPGAHSVALPSIGNGQKLLAVFAQDGSAGSQQKMLPLPAPVTLRMAIPTGTHIVDWYLMSRTGQQVKRAAVDANGFVLDHFSHHAVADHLKNVGDKLVAAFGSEPPDSVFSDSLEVFGADWTPDFLEEFRKKNGYSLLPYLPDLFMKHPDAQALAVRHDWGVTLTALIDENYLTQVNAWARAHHTHLRAQVYGPPAVSLSSNNLVDLPEGEGPQWRQFAYTRWATSAGHLYGRPIISSETFTWLHSPAFRATPLDVKAEADRFFLQGVNQIYCHGWPYSPPSAGEPGWRFYAAAVFDAHNPWWIVMPEVTQYLQRVSWIMRQGAPANRVAIFLPEDDAWAAFTPGQVALTGLLPRWITPQLTQAIENSGYDFDYIDAAAIQARGIHYSLLILPNVDRISPAALTAIQQYEKSGGKVIALGRIPAHAPGFLHYEQISAEVNRESHAFFGHPGARVRVVQAVSGLGDALHQMLTPAMTLSAAKPAVGFVRRKLDDADIYFLANTSNVSIHTVAHLRSRYTSGTWLDPMSGKAYAAQSRNGGWPLHLAPYGSTILVLHAKNVRLPVAAGHDSFNPSSTKAIADLSSDWNVSFPALHLQEPMATLASWTKNEKTLYYSGVAVYRRTLEVAQNDLDHAPLLLSFGQGTPVSPSAFHRQMGTRAWLNPPVHVAAVVYVNGRLAGTVWHPPYVLAVGGLLKPGANQIEVRVANTAINEMAGKSLPDYRLLWARYGRRFEPQDMKHLQPLPSGLLGKVELLEGESR
B2: 1038 (protein, listed as Formosa agariphila)
chain: MILHKSVFKSYIYVLTYFVFFSVMSCENSSVLQEAKHLTISEGFKNPLGFYDAKPTFSWELPVVEGVISQSAYQIVVASSPDLLPNNPDLWDSNKQSSSQSVWINYEGKPLVSRQKVFWQVKYWNQDDKASNWSPVQNFELGLLNNSDWKAKWIGLPTKEEGVLGSQDNIIHRPQYLRKVFELSNDVANARLYITAKGVFDVAINGEDVSDDVMPPGYTPYKKRIETITYDVTDLIESGQNTIGVEVAAGWHSGRLGWMKSYWSDTESPKILCQLEVTMKDGSKASIISDDTWKATTQGPIRISEIYDGETYDAHLEMPHWTTNSFDDKNWKAVQAFPVTSTIKLEPKRHTTVKSKIVLESKEIILKADAAIFDLQQNMVGVPLLKVPMKMGDTLKIRFAEMLSPDGTFYTDNYRSAQSTDYYIAAKEGTIEWMPKFTFHGFRYVELSGFDASKTPSKNWVKGVVQYSNFNENGSFTSSHEKLNQLQSNIVWGLRGNFFDIPTDCPQRDERMGWTGDAQVFGPTSMFNADVYKFWASWMQSVRESQYDNGGIPFVVPDVLHNGKVSSGWGDVCTIIPWKIYYRTGDVGILEENYDMMKKWVAHHQATSKDFISHMNSFADWLQPYPENGNNKGDTSHSLIGTAFFAHSAKLTAKTAEVLGKKEEQATYEALYKSVAKAFENAFFKNGKVKDVTATQTSYLLALAFDLLSEENKENAKQQLLEKISEADNHLRTGFLGTPLLSEVLDETGEIDLMYKLLFNETYPSWFYSINQGATTIWERWNSYSKAEGFNPMKMNSLNHYAYGAIGEWMYERITGIAPLQAGYKIISIAPIPKAPLTSASATLNTPYGEVASSWEIKNETLFLEVVVPPNTTAEIEIPTDNSESLKVDNENFTNGKNLKLIKNEKRKIKILAQPGTYEFQAKYSL
B3: 1056 (protein, listed as Solitalea canadensis)
chain: MKPIITNLMLLLFAGAASAQSSKELYRSKEFSIYTDKVVQGKYIAKVLSPTEMTSDYQSPVNLYKSPKLTFKFSINGKDNEMISGQDHSINVMAKDGKFISPLITFGKHYVDKKNVPDNTYLEPNIDFTIRLDMRNVLNAFKTDGFYKGADGKKVYKEDFKGVYVAGSTLPLIWDFDNLVHHPDLQLKDDDGDGIYEVKVVLNEFKEQPSVSSNWKLKRNISAFPQYQASSPIENAMYNLSLDEMENAIEADSTLRTGKEWAGVWTRDVSYSIILSMAILQPKVAEYSLLRKVKNDRIIQDTGTGGAYPVSTDRMIWAVAAWEIYKTTGDKNWLSKAYSIIKNSIEDDWKNAYDPKTGLVKGESSFLDWREQEYPKWMQPADIYESECLGTNVVHFQANKVFAEMAILLGQKTVSDEHNAIAQTIKTGINNYLWIANKGYYGQYLYGRNYKILSPRSEALGEALAVIFGVADNERQKTIVRNTPVNSFGIPCFYPQLPNTPPYHNNAVWPFVQTYWALAAANAGNEQSVMESIAAIYRPAALFLTNKENFVADNGDFAGTQINSSNMLWSLSGNIALVYKVLFGMQFGADRLTFKPTVPQALAGTRMLTNFKYRNALLTISMQGFGTQIKSITMDGKPLVNAIVPASLTGKHTIKMVLTNMMESSSTTILPAYTSLTIPQVELKNDEIVWKKVPNAVSYVFIKNGDRIDNGIDTACIINNNSFAEYQVIAVDKNGVESFGSEPLQIIPEQTVKTIEIENLTSKADLPYKGYSGDGFVEISTQKNTILSFETTITEAGTYAINFKYANGNGPINTENKCAFRTLKLNNKQVGTVVLPQRGTNEWSEWGMSNSVIVELKAGTNKFDLTYETNNANMNGTVNQAMLDYVRIVKVE
B4: 1032 (protein)
chain: MRYIFFLGLLAASLTAFAQTAPTNLRTDLLLHTDKVWSNGFLTNYTLDGADSAKFAGQLALIRSSRPSFSWVLSTAGGTSRQTAYRLILSTSRQKNQADAGDVWDSGKVMSSQSVGILLPASQKLDTNRIYFWKVKVWNERNLESDFSQPKAFRTAPRLTAYETPFYPLVKTEEAPRSQRTLAGQRIVYDFGKDAFGQAFLTVSSASESDTLIVHLGEAVTADGHVNEKPSGTLRYRQIRVPLQKGTHRYAIQFKPDKRNTGPKAILMPDYIGEVLPFRYVELAFNPATRIEQIVRQVVTYPFDDSATTFSSSDSTLNQIWDLCKHTIKATTFTGYYVDGDRERIPYEADALLNQLSHYATDAEYNMAKRSLNYLVFHATWPTEWSLQNVLIAWYDYLYSGDSRTVEALYPELKAKLLLPLARPDGLISTRTGLQTPEFKKSIHYDTFDGRPTIQDIVDWPQQGVLGLGKKEAGETDGFVFTDYNAVVNAFHYQGLVFMAQLASRLGKTDDAAFYANRAGLVRKAFQATFIHPKTGLVRDGEGTDHASLHANMMALAFGLVPEKLQSQVLAHIRSRGMACSVYGSQFLLDALYNANESAYGLALMTSTDERSWYNMLRTGSTMTTEAWDTRYKPNQDWNHAWGSAPANIIVRKLMGVEALTLAYETVQIKPQPDTLRQASLQVATLRGPISVAFDNTPDRFVLRTTLPANTNGVVYLPRKKTKSQVLQNGKSVKAAVEGNFWKITSVGAGTHEWEVR
modifications: Spirosoma linguale
B5: 997 (protein)
chain: MKSFIKELIEQKEGNYILPFFWQHGESEGKLREYMEAIHSCGIRAVCVEARPHPDYLGPGWWHDLDIIIDEAKKRDMKLWILDDAHFPTGYAAGKIAESEDKYCKQYISRKFIDVSGPTPEVEVNLAAMMMPIMLPSGLNLEMFGMSSEKKRYFTDDRILSIRAYQMDKDSSLIGEGIDLTTNIVNGKLIWDVPKGTWRINVLFITRNGEGRCDYINMVDKDSCRIQIDAVYEPHYEHYKEEFGKTIAGFFSDEPCLGNSIGYNFDESIGKKKTPLPWSSQLEKMLEEKLGKEYLPYYPALWTDMADEKVNARVRYAYMDCVTRLVEENFSRQIGQWCEERGVEYIGHIVEDNNQHSRLGSSQGHFFRSMMGQHMSGIDNIGDQVLPGGENHKREALLGADKDGEFYHYELGKLGSSLAHIDPKKQGRAMCEIFGAYGWRLGIRTMKYLMDHFLVRGINVYVPHAFSPKDFPDSDCPPHFYAGGEDPQFNYFKKLMHYTNRMCHLLNGGTHIAPAAVLYHGEAEWTGGCMFNQKVARELLESQIDFDILPSDVFADMSAYNATFDGFLQVNGESYDCFIVPYAEFITKEVAVFAGTASKKGFPVFFVQGLPESICNIDKKEEEKLLLDGMSECIVVPLEALSKTLKDNKLFEISSDNQFDGLRYYHYRKEQTELYMFSNESIGKEYNGWITVKSKGEVSLYDAMDNRIIPAEYRNTEDGTSIHIRLTPYQSVVALFEDLKEVEDQGNFEAKPGYRLDAAWRISSAEVSKYPEFQPVEVTTELKSMGRVLPDFSGYLRYESEFVYDRMPTGRELLNITDVYEGAEVWLNGHCLGMKICPPYQFPLGEALRAGENHIRIEVATTLDRKVKSLPQDMRSLMFYSKITEPTGIVGSVEIWN
modifications: Lachnoclostridium phytofermentans

One assay is described as follows: Experiment 6-1: screening of rhamnosidases for derhamnosylation of saponins in treated bark extract (2%), QS-17 2296 to QS-18 2150 (PAR %). It counts as biochemical, Quillaja saponaria. The conditions noted are these: TBE 2%, pH 7.5, 30 degC, 18 h; TIC peak area ratio percent of rhamnosylated starting saponin to derhamnosylated product, LCMS/MS; negative controls 4.876, 5.225.
For the molecule B1, the “QS-17 (PAR %)” value amounted to 4.741%.
Same read-out and setting: with B2 the figure was 4.725%; with B3, 4.774%.
Take B4: the “QS-17 (PAR %)” value was 4.730%.
On the same count and under the same terms, with B5 the figure was 4.754%.

The next assay in a line: Experiment 6-1: screening of rhamnosidases for derhamnosylation of saponins in treated bark extract (2%), desglucosyl-QS-17 2134 to QS-21 1988 (PAR %). The conditions noted are these: TBE 2%, pH 7.5, 30 degC, 18 h; TIC peak area ratio percent, LCMS/MS; negative controls 2.719, 2.158. The assay is classed as biochemical, Quillaja saponaria.
For B1, the “Peak75 (PAR %)” value was determined as 2.442%.
Take B2: the “Peak75 (PAR %)” value is recorded as 2.512%.
B3: the “Peak75 (PAR %)” value amounted to 2.416%.
B4: the “Peak75 (PAR %)” value was 2.411%.
For B5, the “Peak75 (PAR %)” value is listed as 2.115%.

Another assay in a line: Experiment 6-1: screening of rhamnosidases for derhamnosylation of saponins in treated bark extract (2%), QS-17 2310 to QS-18 2164 (PAR %). The assay is classed as biochemical, Quillaja saponaria. As to conditions: TBE 2%, pH 7.5, 30 degC, 18 h; TIC peak area ratio percent, LCMS/MS; negative controls 3.061, 2.429.
As to B1, the “Peak57 (PAR %)” value is reported as 2.865%.
On to B2, for which the “Peak57 (PAR %)” value came out at 2.913%.
Consider B3, for which the “Peak57 (PAR %)” value was 2.796%.
On to B4, for which the “Peak57 (PAR %)” value was 3.044%.
Regarding B5, the “Peak57 (PAR %)” value is 2.906%.

A short description of the next assay: Experiment 6-1: specificity of rhamnosidases towards other rhamnose residues (C3 saccharide rhamnose, C28 saccharide rhamnose). It counts as biochemical, Quillaja saponaria. As to conditions: TBE 2%, pH 7.5, 30 degC, 18 h; LCMS/MS; negative controls 0.18, 0.17.
For B1, the “ratio PP/QS-21” value is listed as 0.17.
For B2, the “ratio PP/QS-21” value came to 0.18.
For the molecule B3, the “ratio PP/QS-21” value turned out to be 0.17.
Still for that read-out and setting: under B4 stands 0.17; under B5, 0.17.
